According to paper PMC3127848, “Decreased expression of BRCA1 in SK-BR-3 cells is the result of aberrant activation of the GABP Beta promoter by an NRF-1-containing complex”:

Target: T1, recombinant NRF-1 (rNRF-1) (human, UniProt Q16656 1-503)
T1 sequence: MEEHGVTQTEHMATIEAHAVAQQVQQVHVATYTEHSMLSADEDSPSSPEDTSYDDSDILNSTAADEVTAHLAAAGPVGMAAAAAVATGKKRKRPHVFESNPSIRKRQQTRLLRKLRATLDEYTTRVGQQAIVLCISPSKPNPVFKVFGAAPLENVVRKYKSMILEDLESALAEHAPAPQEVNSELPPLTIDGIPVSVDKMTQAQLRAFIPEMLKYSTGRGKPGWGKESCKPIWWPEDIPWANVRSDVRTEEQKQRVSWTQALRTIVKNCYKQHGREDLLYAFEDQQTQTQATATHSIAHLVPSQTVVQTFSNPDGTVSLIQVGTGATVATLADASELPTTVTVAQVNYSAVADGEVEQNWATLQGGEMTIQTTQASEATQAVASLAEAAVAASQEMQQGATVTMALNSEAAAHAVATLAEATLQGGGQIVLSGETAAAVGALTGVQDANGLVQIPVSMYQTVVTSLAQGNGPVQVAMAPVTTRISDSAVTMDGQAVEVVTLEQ
Test: EMSA; 0.03-5 ug protein, concentration-dependent; 25 mM HEPES pH 7.6, 5 mM MgCl2, 34 mM KCl, 50 ug/mL poly dI:dC, 0.5 mg/mL BSA, on ice 15 min; 6% acrylamide 0.25x TBE gel
Settings: tags: N-terminal MBP fusion (pMAL-c2), chain copies: 2, label: 32P

B1: Gb-270 (dsDNA)
DNA 1: CTGCCGCGCAGGCGCCGGGC
DNA 2: GCCCGGCGCCTGCGCGGCAG
  binding result: binds
